# In patent US20150246953A1 (Scripps Research, published 2015):
# B1: IgG from multiple myeloma patient plasma 13PL (antibody, V domains shown)
# VH: AVSLVESGGGTVEPGSTLRLSCAASGFTFGSYAFHWVRQAPGDGLEWVAFISYNGSSKYYANFVKGRFTISRDNSSNTLSLQMNSLKASDTAVYYCARAPDCAQADCHKGAFGYWGQGTLVTVSS
# VL: DIEMTQSPSSLSASTGDKVTITCQASQDIAQFLDWYQQRPGDTPKLLIYDASNLAIGVPSRFTGSGSGTDFTFTISSLQPEDIAVYYCQHYDDFPISFGPGTKLETKR
# notes: also called multiple myeloma antibody 13PL
# Target: T1, MG281F2 construct, residues 278 to 450 with N-terminal 6-His tag and thrombin cleavage site (Mycoplasma genitalium, UniProt P47523 279-452)
# T1 sequence: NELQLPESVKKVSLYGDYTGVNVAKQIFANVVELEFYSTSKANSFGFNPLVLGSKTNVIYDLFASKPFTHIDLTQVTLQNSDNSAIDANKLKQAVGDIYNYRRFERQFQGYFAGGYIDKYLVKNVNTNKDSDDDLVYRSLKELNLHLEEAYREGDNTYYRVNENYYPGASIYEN
# Test: Western blot, plasma 13PL as primary antibody
binder,measurement,value
B1,binding result,no binding (tested: 1 µg/µg and 2 µg/µg)
